Patent publication US11572572B2, “A138T mutation-containing plant EPSPS mutant, and encoding gene and application thereof” (GEVOTO LLC, priority 2017, dated 2023)

B1: R3: Oryza sativa EPSPS mutant II with G111(96)A and A155(138)T (SEQ ID NO: 7), encoding gene SEQ ID NO: 17 (protein)
chain: MASNAAAAAAKAEEIVLQPIREISGAVQLPGSKSLSNRILLLSALSEGTTVVDNLLNSEDVHYMLEALKALGLSVEADKVAKRAVVVGCGGKFPVEKDAKEEVQLFLGNAATAMRPLTAAVTAAGGNATYVLDGVPRMRERPIGDLVVGLKQLGTDVDCFLGTECPPVRVKGIGGLPGGKVKLSGSISSQYLSALLMAAPLALGDVEIEIIDKLISIPYVEMTLRLMERFGVKAEHSDSWDRFYIKGGQKYKSPGNAYVEGDASSASYFLAGAAITGGTVTVQGCGTTSLQGDVKFAEVLEMMGAKVTWTDTSVTVTGPPREPYGKKHLKAVDVNMNKMPDVAMTLAVVALFADGPTAIRDVASWRVKETERMVAIRTELTKLGASVEEGPDYCIITPPEKLNITAIDTYDDHRMAMAFSLAACADVPVTIRDPGCTRKTFPNYFDVLSTFVRN
modifications: Oryza sativa EPSPS mutant with mutations G111(96)A and A155(138)T
B2: T2: Triticum aestivum EPSPS mutant containing G113(96)A, P118(101)S, and A157(138)T (SEQ ID NO: 11), gene SEQ ID NO: 22; experimental group of Example 7 (protein)
chain: MATSVAAPAAPAGAEEVVLQPIREISGAVQLPGSKSLSNRILLLSALSEGTTVVDNLLNSEDVHYMLEALEALGLSVEADKVAKRAVVVGCGGRFPVEKDAKEEVKLFLGNAATAMRSLTAAVVAAGGNATYVLDGVPRMRERPIGDLVVGLQQLGTDVDCFLGTNCPPVRINGKGGLPGGKVKLSGSISSQYLSSLLMAAPLALEDVEIEIIDKLISVPYVEMTLKLMEHFGVTAEHSDSWDRFYIKGGQKYKSPGNAYVEGDASSASYFLAGAAITGGTVTVEGCGTTSLQGDVKFAEVLEMMGAKVTWTDTSVTVTGPPRQPFGRKHLKAVDVNMNKMPDVAMTLAVVALFADGPTAIRDVASWRVKETERMVAIRTELTKLGATVEEGPDYCIITPPEKLNITAIDTYDDHRMAMAFSLAACAEVPVTIRDPGCTRKTFPNYFDVLSTFVKN
modifications: Triticum aestivum EPSPS mutant with mutations G113(96)A, P118(101)S, and A157(138)T

What was measured:
[1] = system: double-knockout Escherichia coli strain (EDCE); assay: Growth of double-knockout E. coli (EDCE) transformed with Oryza sativa EPSPS genes in glyphosate media (Example 5); type: cell-based; settings: for growth status of transformed Escherichia coli: Example 5, FIG. 1
Description: An Escherichia coli strain transformed with the Oryza sativa EPSPS mutant I-encoding gene according to Example 1 was used as Experimental Group 1 (having only the A155(138)T mutation).
An Escherichia coli strain transformed with the Oryza sativa EPSPS mutant II-encoding gene according to Example 2 was used as Experimental Group 3 (having the G111(96)A mutation and A155(138)T mutation).
An Escherichia coli strain transformed with a wild-type Oryza sativa EPSPS-encoding gene (SEQ ID NO: 14, encoding wild-type Oryza sativa EPSPS set forth in SEQ ID NO: 5) was used as a control group.
The glyphosate resistance of the Oryza sativa EPSPS mutant I-encoding gene and the encoded Oryza sativa EPSPS mutant I in Escherichia coli, and the glyphosate resistance of the Oryza sativa EPSPS mutant II-encoding gene and the encoded Oryza sativa EPSPS mutant II in Escherichia coli were verified by detecting the growth statuses of the transformed Escherichia coli in media containing different concentrations of glyphosate (0 mM, 1 mM, 2 mM, 20 mM) (media obtained by using M9 as a basal medium and then adding certain concentrations of antibiotics Spec (Spectinomycin), Gen (Gentamycin), and Amp (Ampicillin) and different concentrations of glyphosate).
Here, the Escherichia coli strain used was an double-knockout Escherichia coli strain (Escherichia coli strain DH5a from which an EPSPS gene and a C-P Lyase gene were knocked out, named EDCE, which may be prepared by a method with reference to Chinese Patent Application No. 2016103256926).
The detection was carried out by a method well known in the art, which was briefly described below. Gene encoding Oryza sativa EPSPS mutants was synthesized by a chemical synthesis method, wherein enzymatic digestion sites (Pacl and Sbfl) were introduced at both ends of the gene. The gene were enzymatically cleaved and then ligated in the presence of ligase to an expression vector (e.g., pADV5 vector having a structure as shown in FIG. 4) subjected to the same enzymatic digestion treatment, and then were transformed into the double-knockout Escherichia coli strain. After verification, positive clones were picked out and inoculated and grown in media containing glyphosate. The growth statuses were observed.

[2] = system: transgenic rice seedlings; assay: Glyphosate resistance of EPSPS mutants in transgenic rice sprayed with glyphosate (Example 8); type: in vivo, rice (Nipponbare)
Description: The glyphosate resistance of the EPSPS mutants of the above examples in transgenic rice was detected by the following method.
Plasmids of monoclonal resistant strain comprising pADV5-EPSPS of Examples 1-4 (containing the EPSPS mutant genes) were extracted in accordance with a conventional method. They were subjected to double enzymatic digestion with Pacl and BstEII to recover small fragments, and then the small fragments were ligated, using T4 DNA ligase, to a pGVP1 vector subjected to double enzymatic digestion in the same manner, to obtain a pGVP1-EPSPS vector having a structure as shown in FIG. 8.
The pGVP1-EPSPS vector was transformed into EHA105 (Agrobacterium tumefaciens) competent cells, and single clones were picked out for colony PCR detection to obtain positive strains. Then, the positive strains were inoculated into and propagated in 1 mL of a YEP medium containing 50 μg·mL^−1 kanamycin and 50 μg·mL^−1 rifampicin, and stored at −80° C. or used in subsequent experiments.
400 ul of a strain containing the target gene vector stored at −80° C. was added to a culture dish with a solid medium containing YEP+50 μg/mL rifampicin+50 μg/mL kanamycin and cultured in the dark at 28° C. for 24 hours, and then the bacterium was added to an infection medium and adjusted to OD=0.2 as an infection solution.
Disinfection and Pre-culture: seeds of mature rice (Nipponbare) were manually dehulled. Full seeds with no bacterial plaques were selected and disinfected in accordance with the following steps: the seeds were placed in a 50 ml sterile centrifuge tube and disinfected with the added 70% ethanol in water for 30 seconds, ethanol solution was poured out, and the seeds were washed once with sterile water; 10 to 20 ml of 2.6% sodium hypochlorite solution was added to soak and disinfect the seeds for 20 minutes. The sodium hypochlorite solution was poured out, and the seeds were soaked and washed with sterile water for 6 or 7 times, for 3 minutes each time.
Induction and Subculture: the seeds were placed on and blotted with sterile filter paper, and the mature embryos were placed in an induction medium, with 12 embryos per dish. After the operation was completed, the culture dishes were sealed with parafilm and underwent culturing in the dark at 30° C. for 21 to 28 days. Callus tissue was transferred to a fresh medium and continued to be cultured for about 7 to 14 days. Spherical callus tissue with a dimension of 1 to 2 mm was taken as an infection receptor.
The callus tissue was placed into a centrifuge tube or culture cup, infected in the prepared Agrobacterium suspension added thereto for 10 minutes, and shaken several times during the period; the bacterial solution was poured out, the callus tissue was taken out and placed on sterile filter paper for absorbing the bacterial solution from its surface (for about 30 minutes); the callus tissue was placed on sterile filter paper in culture dishes and cultured in the dark at 25° C. for 2 or 3 days.
Recovery Culture: the co-cultured callus tissue was inoculated on a recovery medium and cultured in the dark at 30° C. for 5 to 7 days.
Primary Screening: the callus was transferred to screening medium 1 (51) and cultured in the dark at 30° C. for 14 days.
Secondary Screening: the callus was then transferred to screening medium 2 (S2) and cultured in the dark at 30° C. for 14 days.
Primary Differentiation: the screened resistant callus tissue was transferred to a differentiation medium and cultured for about 21 days at 30° C. under exposure to light for 19 hours.
Secondary Differentiation: new young shoots were selected and moved to a fresh differentiation medium and continued to be cultured for about 21 days.
When the new seedlings grew to about 2 cm, they were moved to a rooting medium and cultured for 3 to 4 weeks at 30° C. under exposure to light (for 16/8 h). […]

[3] = system: double-knockout Escherichia coli (EDCE); assay: Growth of double-knockout E. coli (EDCE) transformed with Triticum aestivum EPSPS genes in glyphosate media (Example 7); type: cell-based
Description: An Escherichia coli strain transformed with the Triticum aestivum EPSPS mutant-encoding gene according to Example 4 was used as an experimental group.
An Escherichia coli strain transformed with a wild-type Triticum aestivum EPSPS-encoding gene (SEQ ID NO: 20, encoding wild-type Triticum aestivum EPSPS set forth in SEQ ID NO: 10 was used as Control Group 1.
The growth statuses of the transformed Escherichia coli strains in media containing different concentrations of glyphosate (0, 1, 20 mM) were detected to verify the glyphosate resistance of the Triticum aestivum EPSPS mutant-encoding gene and the encoded Triticum aestivum EPSPS mutant in Escherichia coli. Here, the Escherichia coli strain used was double-knockout Escherichia coli (Escherichia coli strain DH5a from which an EPSPS gene and a C-P Lyase gene were knocked out, named EDCE, which may be prepared by a method with reference to Chinese Patent Application. 2016103256926).

[4] = 1X dose glyphosate (1,060 g/ha), day 10 after spraying
[5] = 2X dose glyphosate (2,120 g/ha) on survivors of 1X, after another 10 days
[6] = 5X dose glyphosate (5,300 g/ha) on survivors of 2X, after additional 10 days
[7] = 20X dose glyphosate (21,200 g/ha) on survivors of 5X, after further 10 days

Row | Molecule | % ++&+++ (percentage of moderately and highly glyphosate resistant plants in total plants observed) [2, 4] | plant number with resistance + (low glyphosate resistant) [2, 4] | plant number with resistance ++ (moderately glyphosate resistant) [2, 4] | plant number with resistance +++ (highly glyphosate resistant) [2, 4] | % ++&+++ (percentage of moderately and highly glyphosate resistant plants in total plants observed) [2, 5] | plant number with resistance + (low glyphosate resistant) [2, 5] | plant number with resistance ++ (moderately glyphosate resistant) [2, 5] | plant number with resistance +++ (highly glyphosate resistant) [2, 5] | plant number with resistance − (non-glyphosate resistant, withered or dead) [2, 5] | % ++&+++ (percentage of moderately and highly glyphosate resistant plants in total plants observed) [2, 6] | plant number with resistance + (low glyphosate resistant) [2, 6] | plant number with resistance ++ (moderately glyphosate resistant) [2, 6] | plant number with resistance +++ (highly glyphosate resistant) [2, 6] | plant number with resistance − (non-glyphosate resistant, withered or dead) [2, 6] | % ++&+++ (percentage of moderately and highly glyphosate resistant plants in total plants observed) [2, 7] | plant number with resistance + (low glyphosate resistant) [2, 7] | plant number with resistance ++ (moderately glyphosate resistant) [2, 7] | plant number with resistance +++ (highly glyphosate resistant) [2, 7] | plant number with resistance − (non-glyphosate resistant, withered or dead) [2, 7] | further results
1 | B1 | 70.8% | 1 | 9 | 25 | 66.7% | 0 | 4 | 28 | 16 | 50.0% | 0 | 13 | 11 | 24 | 22.9% | 7 | 7 | 4 | 30 | glyphosate concentration of medium in which the E. coli strain was kept in a growing state ([1]; Example 5): up to 20 mM; growth status of transformed Escherichia coli ([1]; medium containing 1 mM glyphosate): showed bacterial plaques; growth status of transformed Escherichia coli ([1]; medium containing 2 mM glyphosate): could grow normally; growth status of transformed Escherichia coli ([1]; medium containing 20 mM glyphosate): could grow normally
2 | B2 | 75.0% | 2 | 4 | 20 | 59.4% | 3 | 2 | 17 | 10 | 50.0% | 5 | 14 | 2 | 11 | 21.9% | 11 | 7 | 0 | 14 | glyphosate concentration of medium in which the E. coli strain was kept in a growing state [3]: up to 20 mM; level of glyphosate resistance of transformed rice seedlings compared with the mutant lacking the A138T mutation (R4 for R5, T1 for T2) (in words) ([2]; each of 1×, 2×, 5×, and 20× glyphosate doses): higher levels of glyphosate resistance
